The test deals with bLPL. Description: PCSK3 cleavage of LPL (SDS-PAGE densitometry). Format: biochemical, bovine. To be noted: 20 μM bLPL, 4 units PCSK3, 2 μM ANGPTL4, no GPIHBP1; 25°C, pH 7.0; 110 min without ANGPTL4. How it is done: To determine if charge-variants of GPIHBP1 confer distinct resistance to ANGPTL4-facilitated cleavage of LPL after Arg^324 by PCSK3 ([33]), we incubated purified bLPL (20 μM) with PCSK3 (4 units) for 0–240 min, either alone or in the presence of ANGPTL4 (2 μM) and/or GPIHBP1 (25 μM) at 25°C in 10 mM 2-(N-morpholino) ethane sulfonic acid (MES), 150 mM NaCl, 1 mM CaCl2, pH 7.0. We tested four different GPIHBP1 variants: GPIHBP1^1–131, GPIHBP1^Cluster1-neutral, GPIHBP1^Cluster2-neutral, and GPIHBP1^34–131 (LU domain only). PCSK3 cleavage was stopped by boiling in SDS-PAGE sample buffer (reduced and alkylated) and the degree of cleavage was assessed by SDS-PAGE using 12% Bis-Tris SDS-PAGE gels followed by densitometric scanning of the corresponding Coomassie blue–stained SDS-polyacrylamide gels.
Secretion of LPL by adipocytes is modulated in an autocrine manner by ANGPTL4. […] In the presence of endogenous ANGPTL4, a significant fraction of LPL was cleaved by PCSK3 in the trans-Golgi compartment. […] The presence of GPIHBP1 dramatically delayed PCSK3 cleavage of LPL ([33]). To assess the role of the acidic tail in GPIHBP1 on this delay, we incubated 20 μM bLPL with 4 units of PCSK3 either alone or in the presence of 2 μM ANGPTL4. We observed that the presence of sub-stoichiometric amounts of ANGPTL4 reduced the half-life of intact bLPL from 110 min to less than 5 min (Fig. 5A). […] Our results emphasized the essential role of GPIHBP1’s acidic tail in protecting LPL against ANGPTL4-induced cleavage by PCSK3.
Fig. 5 GPIHBP1 reduces ANGPTL4-facillitated PSCK3 cleavage of LPL. 20 μM bLPL was incubated with 4 units of PSCK3 for 0–240 min at 25°C and the extent of LPL cleavage after Arg^324 was assessed by densitometric scanning of Coomassie–blue stained polyacrylamide after SDS-PAGE of reduced and alkylated samples. A: PSCK3 cleavage of LPL is accelerated by the presence of 2 μM ANGPTL4—present at sub-stoichiometric amounts compared to bLPL (20 μM). 25 μM intact GPIHBP1, but not GPIHBP1^34–131 mitigates PSCK3 cleavage of LPL. B: Both GPIHBP1^Cluster1-neutral and GPIHBP1^Cluster2-neutral rescue LPL from cleavage by PSCK3 in the absence of ANGPTL4 and both are more efficient than GPIHBP1^34–131. C: in the presence of 2 μM ANGPTL4, 25 μM GPIHBP1^Cluster1-neutral protects LPL from PSCK3 cleavage more efficiently than the GPIHBP1^Cluster2-neutral, which indicates a more prominent role of acidic cluster 2 in protecting LPL from ANGPTL4-catalyzed unfolding and subsequent PSCK3 cleavage. Shown are the mean values (±SEM) for intact LPL relative to that present at time 0 min for 3–5 independent time-course experiments. Some curves appear in multiple panels to increase clarity.

B1: ANGPTL4: Coiled-coil domain of ANGPTL4 (residues 1–159, N-terminal methionine, C-terminal 6× His-tag) produced in E. coli (protein, UniProt Q9BY76 26-406, looked up)
Angiopoietin-related protein 4: GPVQSKSPRFASWDEMNVLAHGLLQLGQGLREHAERTRSQLSALERRLSACGSACQGTEGSTDLPLAPESRVDPEVLHSLQTQLKAQNSRIQQLFHKVAQQQRHLEKQHLRIQHLQSQFGLLDHKHLDHEVAKPARRKRLPEMAQPVDPAHNVSRLHRLPRDCQELFQVGERQSGLFEIQPQGSPPFLVNCKMTSDGGWTVIQRRHDGSVDFNRPWEAYKAGFGDPHGEFWLGLEKVHSITGDRNSRLAVQLRDWDGNAELLQFSVHLGGEDTAYSLQLTAPVAGQLGATTVPPSGLSVPFSTWDQDHDLRRDKNCAKSLSGGWWFGTCSHSNLNGQYFRSIPQQRQKLKKGIFWKTWRGRYYPLQATTMLIQPMAAEAAS
With B1, the “half-life of intact bLPL” value is “less than 5 min”.

Values taken from paper PMC11869522, “Competitive displacement of lipoprotein lipase from heparan sulfate is orchestrated by a disordered acidic cluster in GPIHBP1” (Journal of Lipid Research, 2025).
